From paper PMC6402988

Molecular target: ADI-15946 (human)
Assay: BLI

## EBOV GP cleaved (EBOV GPCL) (from UniProt Q05320 33-650) (domain or fragment)
  Kd: < 1 pM
  koff: < 1e-07 s⁻¹
